PMC6910826

Target: 6xHis-Zasp52-PK-FLAG (Drosophila melanogaster)
Assay: cross-linking; purified 6xHis-Zasp52-PK-FLAG incubated with EGS or alone; SDS-PAGE and anti-Flag western blot

6xHis-Zasp52-PK-FLAG, sequence (A1ZA47 whole entry): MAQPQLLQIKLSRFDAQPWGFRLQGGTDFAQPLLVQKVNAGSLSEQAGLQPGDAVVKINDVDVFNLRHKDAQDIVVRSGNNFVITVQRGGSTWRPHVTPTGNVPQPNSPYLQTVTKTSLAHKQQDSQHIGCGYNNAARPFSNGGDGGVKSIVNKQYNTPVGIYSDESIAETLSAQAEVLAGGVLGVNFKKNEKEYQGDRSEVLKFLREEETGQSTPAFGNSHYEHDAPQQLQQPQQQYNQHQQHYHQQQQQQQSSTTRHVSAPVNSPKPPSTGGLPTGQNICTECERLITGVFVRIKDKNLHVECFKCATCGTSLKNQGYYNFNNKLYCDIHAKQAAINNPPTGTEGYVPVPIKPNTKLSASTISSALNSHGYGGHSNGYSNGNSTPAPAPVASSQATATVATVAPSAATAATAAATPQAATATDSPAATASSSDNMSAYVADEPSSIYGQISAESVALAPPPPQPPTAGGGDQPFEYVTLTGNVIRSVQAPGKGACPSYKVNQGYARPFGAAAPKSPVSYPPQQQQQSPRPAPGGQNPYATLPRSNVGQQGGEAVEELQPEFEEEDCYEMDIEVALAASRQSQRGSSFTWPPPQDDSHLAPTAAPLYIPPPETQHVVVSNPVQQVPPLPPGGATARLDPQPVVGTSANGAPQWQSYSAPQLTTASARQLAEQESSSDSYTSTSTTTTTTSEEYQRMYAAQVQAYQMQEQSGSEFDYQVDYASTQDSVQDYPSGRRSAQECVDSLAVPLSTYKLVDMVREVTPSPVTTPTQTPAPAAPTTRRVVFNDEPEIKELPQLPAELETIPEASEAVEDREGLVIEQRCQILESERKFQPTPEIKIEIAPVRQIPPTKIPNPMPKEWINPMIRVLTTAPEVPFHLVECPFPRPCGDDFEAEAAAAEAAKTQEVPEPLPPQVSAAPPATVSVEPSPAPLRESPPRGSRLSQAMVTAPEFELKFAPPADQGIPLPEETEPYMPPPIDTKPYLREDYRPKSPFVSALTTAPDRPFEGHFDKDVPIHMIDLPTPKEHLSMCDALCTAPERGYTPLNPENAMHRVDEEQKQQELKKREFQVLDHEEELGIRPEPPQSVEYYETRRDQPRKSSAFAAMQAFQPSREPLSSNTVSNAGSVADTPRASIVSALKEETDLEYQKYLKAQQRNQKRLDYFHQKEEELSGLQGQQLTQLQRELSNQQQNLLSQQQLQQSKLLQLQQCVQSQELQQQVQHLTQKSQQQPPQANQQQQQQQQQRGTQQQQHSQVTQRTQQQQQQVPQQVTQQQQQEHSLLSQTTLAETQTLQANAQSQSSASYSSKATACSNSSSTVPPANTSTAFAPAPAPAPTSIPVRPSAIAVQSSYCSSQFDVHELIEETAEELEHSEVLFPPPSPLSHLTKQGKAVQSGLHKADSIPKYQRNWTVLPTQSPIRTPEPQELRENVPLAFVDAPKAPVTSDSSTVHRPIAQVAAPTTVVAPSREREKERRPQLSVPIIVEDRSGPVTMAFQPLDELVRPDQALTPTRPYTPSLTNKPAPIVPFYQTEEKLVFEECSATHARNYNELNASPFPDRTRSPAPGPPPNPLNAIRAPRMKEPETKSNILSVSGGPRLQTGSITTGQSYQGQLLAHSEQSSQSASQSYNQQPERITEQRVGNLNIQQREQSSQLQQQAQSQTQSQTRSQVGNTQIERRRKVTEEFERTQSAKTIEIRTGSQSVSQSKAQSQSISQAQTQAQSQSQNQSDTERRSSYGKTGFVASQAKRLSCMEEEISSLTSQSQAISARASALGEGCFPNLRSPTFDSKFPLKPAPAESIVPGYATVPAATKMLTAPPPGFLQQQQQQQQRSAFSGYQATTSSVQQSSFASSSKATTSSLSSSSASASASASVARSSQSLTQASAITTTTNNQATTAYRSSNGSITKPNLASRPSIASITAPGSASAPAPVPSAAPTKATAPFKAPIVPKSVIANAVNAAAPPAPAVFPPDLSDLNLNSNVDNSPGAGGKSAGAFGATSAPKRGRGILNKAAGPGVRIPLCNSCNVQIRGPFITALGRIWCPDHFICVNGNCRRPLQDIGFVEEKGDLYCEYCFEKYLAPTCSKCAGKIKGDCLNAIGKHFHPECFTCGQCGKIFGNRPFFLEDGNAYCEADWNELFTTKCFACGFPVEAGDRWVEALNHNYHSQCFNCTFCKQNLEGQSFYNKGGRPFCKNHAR

stoichiometry N: 2
Substance: 6xHis-Zasp52-PK-FLAG (natural protein)
